Data as given in paper PMC10681723, “The N-terminus of Spt16 anchors FACT to MCM2–7 for parental histone recycling” (Nucleic Acids Research, 2023).

Target: Recombinant Saccharomyces cerevisiae histone H3/H4 (Saccharomyces cerevisiae, UniProt P61830 1-136; P02309 1-103)
Assay: pull-down; 2 μg GST-Mcm2HBD on Glutathione Sepharose; 0.1, 0.2 and 0.4 μg histone H3/H4 in 0.4 ml buffer A150 (25 mM Tris pH 7.5, 1 mM EDTA, 0.01% NP-40, 150 mM NaCl), 6 h, 4°C; CBB staining
Conditions: both partners purified

B1: GST-tagged Mcm2HBD (residues 1–200) (domain or fragment, yeast, UniProt P29469 1-200, looked up)
chain: MSDNRRRRREEDDSDSENELPPSSPQQHFRGGMNPVSSPIGSPDMINPEGDDNEVDDVPDIDEVEEQMNEVDLMDDNMYEDYAADHNRDRYDPDQVDDREQQELSLSERRRIDAQLNERDRLLRNVAYIDDEDEEQEGAAQLDEMGLPVQRRRRRRQYEDLENSDDDLLSDMDIDPLREELTLESLSNVKANSYSEWITQ
notes: also called GST-Mcm2HBD; source: E. coli BL21(DE3) CodonPlus RIL, pGEX4T-1, purified (Glutathione Sepharose)
B1: binds.
